B1: MED29 (natural protein, mouse (Mus musculus; endogenous in CH12), UniProt Q9DB91 1-199, looked up)
chain: MAAPQPQAAAVSSASGVSGPGSAGGPGPQQQPQPTQLVGSAQSGLLQQQQQDFDPVQRYKMLIPQLKESLQTLMKVAAQNLIQNTNIDNGQKSSDAPLQRFDKCLEEFYALCDQLELCLRLAHECLSQSCDSAKHSPTLVPTATKPDAVQPDSLPYPQYLAVIKAQITCAKDIHTALLDCANKVTGKTTAPSTGPGGSL
notes: MED29, Mus musculus, endogenous upper Tail subunit of Mediator; source: endogenous, CH12 mouse B lymphoma nuclear extract; immunopurified as part of Mediator (FLAG M2 agarose, FLAG peptide elution)
B2: MED27 (natural protein, mouse (Mus musculus; endogenous in CH12), UniProt Q9DB40 1-311, looked up)
chain: MADVLSVGVNLEAFSQAISAIQALRSSVSRVFDCLKDGMRNKETLEGREKAFIANFQDNLHSVNRDLNELERLSNLVGKPSENHPLHNSGLLSLDPVQDKTPLYSQLLQAYKWSNKLQYHAGLASGLLNQQSLKRSANQMGVSAKRRPKAQPTTLVLPPQYVDDVISRIDRMFPEMSIHLSRPNGTSAMLLVTLGKVLKVIVVMRSLFIDRTIVKGYNESVYTEDGKLDIWSKSSYQVFQKVTDHATTALLHYQLPQMPDVVVRSFMTWLRSYIKLFQAPCQRCGKFLQDGLPPTWRDFRTLEAFHDTCRQ
notes: MED27, Mus musculus, endogenous upper Tail subunit of Mediator; source: endogenous, CH12 mouse B lymphoma nuclear extract; immunopurified as part of Mediator (FLAG M2 agarose, FLAG peptide elution)
B3: MED24 (natural protein, mouse (Mus musculus; endogenous in CH12), UniProt Q99K74 1-987, looked up)
chain: MKVVNLKQAILQAWKERWSDYQWAINMKKFFPKGATWDILNLAEALLEQAMIGPSPNPLILSYLKYAISSQMVSCSSVLTAISKFDDFSRDLCVQALLDIMDMFCDRLSCHGKAEECIGLCRALLSALHWLLRCTAASAERLQEGLEAGTPAPGEKQLALCLQCLEKTLSSTKNRALLHIAKLEEASSWTAIEHSLLKLGEILANLSNPQLRSQAERCGTLIRSIPSMLSVHSEQLHKTGFPTIHALILLEGTMNLTGEMQPLVEQLMMVKRMQHIPTPLFVLEIWKACFVGLIESPEGTQELKWTAFTYLKIPQVLVKLKKYFHGEKDFTEDVNCAFEFLLKLTPLLDKADQRCNCDCTNFLLQECNKQGLLSEVNFASLVGKRTADRDPQLKSSENANIQPNPGLILRAEPTVTNILKTMDADHSKSPEGLLGVLGHMLSGKSLDLLLAAAAATGKLKSFARKFINLNEFTTHGSGESTKTASVRALLFDISFLMLCHVAQTYGSEVILSESSSGEEVPFFETWMQTCMPEEGKILNPDHPCFRPDSTKVESLVALLNNSSEMKLVQMKWHEACLSISAAILEILNAWENGVLAFESIQKITDNIKGKVCSLAVCAVAWLVAHVRMLGLDEREKSLQMIRQLAGPLYSENTLQFYNERVVIMNSILEHMCADVLQQTATQIKFPSTGVDTMPYWNLLPPKRPIKEVLTDIFAKVLEKGWVDSRSIHILDTLLHMGGVYWFCNNLIKELLKETRKEHTLRAVQLLYSIFCLDMQQVTLVLLGHILPGLLTDSSKWHSLMDPPGTALAKLAVWCALSSYSSHKGQASSRQKKRHREDIEDYVSLFPVEDMQPSKLMRLLSSSDDDANILSSPTDRSMNSSLSASQLHTVNMRDPLNRVLANLFLLISSILGSRTAGPHTQFVQWFMEECVGCLEQDSRGSILQFMPFTTVSELVKVSAMSSPKVVLAITDLSLPLGRQVAAKAIAAL
notes: MED24, Mus musculus, endogenous lower Tail subunit of Mediator; source: endogenous, CH12 mouse B lymphoma nuclear extract; immunopurified as part of Mediator (FLAG M2 agarose, FLAG peptide elution)
B4: MED17 (natural protein, mouse (Mus musculus; endogenous in CH12), UniProt Q8VCD5 1-649, looked up)
chain: MSGVRAVRISIESACEKQVQEVGLDGTETYLQPLSMSQNLARLAQRIDFSQGSGSEEEEAAGPDGDAPDWGGAGADQDDEEGLVKFQPSLWPWDSVRNNLRSALTEMCVLYDVLSIVRDKKFMTLDPVSQDALPPKQSPQTLQLISKKKSLAGAAQILLKGAERLTKSVAENQENKLQRDFNSELLRLRQHWKLRKVGDKILGDLSYRSAGSLFPHHGTFEVIKNTDIDLDKKIPEDYCPLDVQIPSDLEGSAYIKVSIQKQAPDIGDLGTVNLFKRPLPKSKPGSPHWQTKLEAAQNVLLCKEIFAQLSREAVQIKSQIPHIVVKNQIISQPFPSLQLSISLCHSSDDKKSQKCAAEKPGQEDHLYVLEHNLHLLIREFHKQTLSSIVMPHPASAPFGHKRMRLSGPQAFDKNEINSIQSTEGLLEKIIKQAKHIFLRSRTAATIDSLASRIEDPQIQAHWSNINDVYESSVKVLITSQGYEQICKSIQLQLNIGVEQVRVVHRDGRVIMLSHQEQELQDFLLSQMSQHQVHAVQQLAKVMGWQVLSFSNHVGLGPIESIGNASAITVASPSGDYAISVRNGPESGSKIMVQFPRNQCKDLPKSDVLQDSKWSHLRGPFKEVQWNKMEGRNFVYKMELLMSALSPCLL
notes: MED17, Mus musculus, endogenous Head module scaffold subunit of Mediator; source: endogenous, CH12 mouse B lymphoma nuclear extract; immunopurified as part of Mediator (FLAG M2 agarose, FLAG peptide elution)

How the values were obtained:
Assay in all cases: cryo-EM structure; endogenous mouse Mediator immunopurified from CH12 nuclear extract through 3×FLAG-MED19 or 3×FLAG-MED25; eluted in 50 mM HEPES pH 7.9, 100 mM KCl, 5% glycerol, 1 mM EDTA, 0.005% NP-40; map at 4.0 Å overall, focused refinement of the MED1 and knob/hook ends (6-10 Å)
Conditions in all cases: both partners purified
[1] = target: B2
[2] = target: T1, MED15 (mouse (Mus musculus; endogenous in CH12), UniProt Q924H2 1-789)
T1 construct: MED15, Mus musculus, endogenous lower Tail subunit of Mediator; only the C-terminal portion (from residue 620) is seen in the map; source: endogenous, CH12 mouse B lymphoma nuclear extract; immunopurified as part of Mediator (FLAG M2 agarose, FLAG peptide elution)
T1 sequence (looked up): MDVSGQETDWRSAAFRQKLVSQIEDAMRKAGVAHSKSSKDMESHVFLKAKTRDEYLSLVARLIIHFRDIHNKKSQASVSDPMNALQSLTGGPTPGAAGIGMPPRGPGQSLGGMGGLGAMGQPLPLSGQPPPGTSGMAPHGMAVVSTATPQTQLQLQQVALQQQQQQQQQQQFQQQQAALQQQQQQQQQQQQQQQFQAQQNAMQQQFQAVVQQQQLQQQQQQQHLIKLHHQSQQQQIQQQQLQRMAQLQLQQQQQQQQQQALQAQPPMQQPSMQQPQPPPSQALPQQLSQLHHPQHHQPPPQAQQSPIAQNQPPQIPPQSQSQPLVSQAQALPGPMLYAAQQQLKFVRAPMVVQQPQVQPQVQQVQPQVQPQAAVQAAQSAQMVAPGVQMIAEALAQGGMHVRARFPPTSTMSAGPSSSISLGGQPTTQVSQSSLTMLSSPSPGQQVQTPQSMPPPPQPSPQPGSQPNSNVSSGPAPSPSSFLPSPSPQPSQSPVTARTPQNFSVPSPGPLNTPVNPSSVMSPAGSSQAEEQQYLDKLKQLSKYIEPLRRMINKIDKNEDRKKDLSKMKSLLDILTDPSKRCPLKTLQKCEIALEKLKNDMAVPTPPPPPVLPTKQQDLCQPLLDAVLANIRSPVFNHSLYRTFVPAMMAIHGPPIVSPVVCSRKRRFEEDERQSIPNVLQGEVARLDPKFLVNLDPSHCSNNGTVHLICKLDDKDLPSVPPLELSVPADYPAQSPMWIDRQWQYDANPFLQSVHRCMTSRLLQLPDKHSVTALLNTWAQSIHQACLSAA

[3] = target: T2, MED16 (mouse (Mus musculus; endogenous in CH12), UniProt Q6PGF3 1-828)
T2 construct: MED16, Mus musculus, endogenous lower Tail subunit of Mediator; source: endogenous, CH12 mouse B lymphoma nuclear extract; immunopurified as part of Mediator (FLAG M2 agarose, FLAG peptide elution)
T2 sequence (looked up): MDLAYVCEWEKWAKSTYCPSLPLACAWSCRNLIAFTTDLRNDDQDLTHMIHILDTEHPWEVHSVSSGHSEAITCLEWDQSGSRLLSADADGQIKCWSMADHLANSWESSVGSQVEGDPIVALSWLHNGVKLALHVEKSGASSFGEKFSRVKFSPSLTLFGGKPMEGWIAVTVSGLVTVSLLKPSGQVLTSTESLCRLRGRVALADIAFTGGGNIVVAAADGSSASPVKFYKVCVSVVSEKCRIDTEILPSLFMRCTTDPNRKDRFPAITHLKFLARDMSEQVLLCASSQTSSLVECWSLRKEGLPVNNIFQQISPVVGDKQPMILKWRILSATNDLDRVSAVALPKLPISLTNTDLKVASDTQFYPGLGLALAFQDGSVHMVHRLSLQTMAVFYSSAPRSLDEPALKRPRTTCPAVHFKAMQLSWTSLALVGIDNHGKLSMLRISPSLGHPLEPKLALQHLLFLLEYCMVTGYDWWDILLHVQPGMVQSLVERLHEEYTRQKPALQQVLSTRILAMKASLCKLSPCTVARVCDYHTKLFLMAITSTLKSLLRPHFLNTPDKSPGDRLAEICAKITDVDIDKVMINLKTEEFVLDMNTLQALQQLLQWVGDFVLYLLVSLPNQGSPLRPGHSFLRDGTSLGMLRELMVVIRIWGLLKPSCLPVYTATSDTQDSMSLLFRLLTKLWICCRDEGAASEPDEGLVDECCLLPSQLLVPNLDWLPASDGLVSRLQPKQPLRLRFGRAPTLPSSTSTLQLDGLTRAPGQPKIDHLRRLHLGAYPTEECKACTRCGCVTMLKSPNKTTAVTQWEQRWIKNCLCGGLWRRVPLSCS

[4] = target: B4
[5] = target: T3, MED1 (mouse (Mus musculus; endogenous in CH12), UniProt Q925J9 1-1575)
T3 construct: MED1, Mus musculus, endogenous Middle module subunit of Mediator; only a partial model of the folded N-terminal portion was built; Partial model only; this part of the map is at about 6-8 Å; also called Mediator subunit MED1; source: endogenous, CH12 mouse B lymphoma nuclear extract; immunopurified as part of Mediator (FLAG M2 agarose, FLAG peptide elution)
T3 sequence (Q925J9 whole entry): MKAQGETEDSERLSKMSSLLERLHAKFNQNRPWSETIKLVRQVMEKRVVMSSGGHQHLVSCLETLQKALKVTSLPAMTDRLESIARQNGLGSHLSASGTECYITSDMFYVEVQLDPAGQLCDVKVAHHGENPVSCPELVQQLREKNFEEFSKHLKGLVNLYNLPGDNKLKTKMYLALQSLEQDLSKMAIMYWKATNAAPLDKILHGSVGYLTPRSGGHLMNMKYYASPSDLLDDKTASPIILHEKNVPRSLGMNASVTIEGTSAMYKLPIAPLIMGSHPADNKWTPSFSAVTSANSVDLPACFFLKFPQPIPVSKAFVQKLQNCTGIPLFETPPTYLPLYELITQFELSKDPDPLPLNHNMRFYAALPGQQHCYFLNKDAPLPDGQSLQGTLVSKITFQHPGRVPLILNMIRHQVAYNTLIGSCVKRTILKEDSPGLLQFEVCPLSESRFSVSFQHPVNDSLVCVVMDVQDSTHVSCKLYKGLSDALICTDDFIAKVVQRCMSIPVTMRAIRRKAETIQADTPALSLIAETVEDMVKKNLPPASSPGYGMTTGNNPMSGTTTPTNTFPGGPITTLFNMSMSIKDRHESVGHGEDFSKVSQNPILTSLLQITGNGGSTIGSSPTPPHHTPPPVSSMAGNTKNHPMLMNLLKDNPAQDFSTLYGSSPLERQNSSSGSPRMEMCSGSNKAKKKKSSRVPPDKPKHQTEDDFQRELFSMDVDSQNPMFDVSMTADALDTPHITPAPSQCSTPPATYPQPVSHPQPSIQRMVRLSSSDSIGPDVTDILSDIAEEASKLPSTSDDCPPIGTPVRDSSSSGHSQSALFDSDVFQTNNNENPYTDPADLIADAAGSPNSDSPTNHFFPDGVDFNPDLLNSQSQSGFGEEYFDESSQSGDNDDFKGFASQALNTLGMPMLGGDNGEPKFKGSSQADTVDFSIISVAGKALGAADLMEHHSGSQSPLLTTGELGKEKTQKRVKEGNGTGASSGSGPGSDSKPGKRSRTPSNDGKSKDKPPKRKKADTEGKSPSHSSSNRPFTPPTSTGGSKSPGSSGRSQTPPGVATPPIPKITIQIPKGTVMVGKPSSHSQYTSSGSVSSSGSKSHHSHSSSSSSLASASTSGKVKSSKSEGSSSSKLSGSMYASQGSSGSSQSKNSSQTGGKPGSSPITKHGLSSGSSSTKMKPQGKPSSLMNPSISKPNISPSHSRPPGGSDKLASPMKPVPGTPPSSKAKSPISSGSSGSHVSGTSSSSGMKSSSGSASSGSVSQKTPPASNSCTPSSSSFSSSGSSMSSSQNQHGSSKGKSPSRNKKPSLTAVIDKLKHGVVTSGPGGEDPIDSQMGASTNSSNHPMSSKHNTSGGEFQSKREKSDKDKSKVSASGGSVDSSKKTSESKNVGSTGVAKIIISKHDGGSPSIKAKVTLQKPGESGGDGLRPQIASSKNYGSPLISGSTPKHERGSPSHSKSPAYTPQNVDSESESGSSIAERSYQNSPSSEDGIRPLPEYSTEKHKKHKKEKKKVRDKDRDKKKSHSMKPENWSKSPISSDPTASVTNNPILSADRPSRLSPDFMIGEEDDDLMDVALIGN

Binder	binding result [1]	binding result [2]	binding result [3]	binding result [4]	binding result [5]
B1	binds	binds	binds	–	–
B2	–	binds	binds	binds	–
B3	–	–	–	–	binds
B4	–	binds	–	–	–

From paper PMC7921410, “Structure of mammalian Mediator complex reveals Tail module architecture and interaction with a conserved core” (Nature Communications, 2021)
